This passage reports Km and kcat results from PMC6221367, “A dual regulatory circuit consisting of S-adenosylmethionine decarboxylase protein and its reaction product controls expression of the paralogous activator prozyme in Trypanosoma brucei” (PLoS Pathogens, 2018).

Substrate in data set [1]: CSCC[C@H](N)C(=O)O
Nature of the data set: coupled spectroscopic assay of pyrophosphate release (A340). As to conditions: 150 nM enzyme, co-substrate ATP, 5 mM MgSO4 and 100 mM KCl in 50 mM HEPES assay buffer, pH 8.0, 37 °C, parenthesis = 95% CI. Type of data set: biochemical, Trypanosoma brucei. The text has this: (§1) coupled spectroscopic assay of pyrophosphate release (A340) on TbAdoMetSyn

Substrate in data set [2]: Nc1ncnc2c1ncn2[C@@H]1O[C@H](COP(=O)(O)OP(=O)(O)OP(=O)(O)O)[C@@H](O)[C@H]1O
Described as above. Type of data set: biochemical, Trypanosoma brucei. The note with it: 150 nM enzyme, co-substrate methionine, 5 mM MgSO4 and 100 mM KCl in 50 mM HEPES assay buffer, pH 8.0, 37 °C, parenthesis = 95% CI.
Description: as §1

B1: TbAdoMetSyn (Trypanosoma brucei brucei TREU927) (protein)
chain: MSVRQIFFTSEHVSEGHPDKLCDQVSDAVLDACLEQDPLSKVACETCSKTGMVLVFGEITTKAVIDYQKVVRDTVKEIGFDNTEKGLDYRSLNLLVAVEQQSPDIYQGLGDFGGENLGAGDQGMMFGYATNETETLMPLSYELARGLAMTYSELRRNGGLPWARPDAKTQVTVQYEYDTRGGKQLLTPKRVAVILVSAQLDDGVSNETIREDLVKKVISTTIPAKFLDENTKYHLNPSGRFVIGGPHGDAGLTGRKIIVDTYGGWGAHGGGAFSGKDPSKVDRSAAYAARWIAKSLVAAGLADRCLVQLSYAIGVAEPLNIHVDTYGTGKRDDEYILGIVQKNFRLRPYDIIKELDLRRPIYRQTACFGHFGRVDTNGKGGFTWEVPKTLEGLSDVQ
notes: E. coli BL21(DE3); His6-tag removed by TEV protease
In the case of B1, in data set [1], the Km is 0.031 (0.025–0.039) mM and the kcat turned out to be 0.19 s⁻¹. In data set [2], the Km is given as 0.31 (0.24–0.40) mM and the kcat is 0.21 s⁻¹.

Broadly, the kcat is the number of substrate molecules converted per active site and unit of time at saturation.
